This note sets out measurements from the supplement of paper PMC5998384.

Data set [1] relates to HeLa Kyoto. Nature of the data set: solubility in G1/S (NP-40 vs SDS abundance) (log2 ratio); higher = more soluble. Particulars: cell cycle stage: G1/S.
The subject of data set [2] is HeLa Kyoto. Nature of the data set: thermal stability score vs G1/S (z-score of summed log2 fold changes over temperatures); higher = more thermally stable than in G1/S.
Data set [3] deals with HeLa Kyoto. Nature of the data set: solubility change mitosis vs G1/S (difference of NP-40 vs SDS log2 ratios) (log2 ratio difference); higher = more soluble in mitosis.
In data set [4] the test system is HeLa Kyoto. Nature of the data set: melting temperature (median over replicates), in situ; higher = more thermally stable.
Where [5] appears, read: cell cycle stage: early G1 (4.5 h after nocodazole release).
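Wherever melting temperature (median over replicates), in situ is given: HeLa Kyoto cells synchronized by double thymidine or nocodazole block, proteins quantified by TMT10plex mass spectrometry, three independent biological replicates.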
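Wherever solubility change mitosis vs G1/S (difference of NP-40 vs SDS log2 ratios) is given: synchronized HeLa Kyoto cells (double thymidine block for G1/S, nocodazole release for mitosis), protein amounts in NP-40 versus SDS lysates quantified by mass spectrometry, three biological replicates.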
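Wherever solubility in G1/S (NP-40 vs SDS abundance) is given: HeLa Kyoto cells arrested at G1/S by double thymidine block, proteins quantified by TMT10plex mass spectrometry in mild NP-40 versus SDS extracts, three biological replicates.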
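Wherever thermal stability score vs G1/S (z-score of summed log2 fold changes over temperatures) is given: synchronized HeLa Kyoto cells, proteins quantified by TMT10plex mass spectrometry, three biological replicates, mitosis taken 0.5 h after nocodazole release, G1/S directly after double thymidine block.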

For “MGNCCWTQCFGLLRKEAGRLQRVGGGGGSKYFRTCSRGEHLTIEFENLVESDEGESPGSSHRPLTEEEIVDLRERHYDSIAEKQKDLDKKIQKELALQEEKLRLEEEALYAAQREAARAAKQRKLLEQERQRIVQQYHPSNNGEYQSSGPEDDFESCLRNMKSQYEVFRSSRLSSDATVLTPNTESSCDLMTKTKSTSGNDDSTSLDLEWEDEEGMNRMLPMRERSKTEEDILRAALKYSNKKTGSNPTSASDDSNGLEWENDFVSAEMDDNGNSEYSGFVNPVLELSDSGIRHSDTDQQTR [AP1AR]”, in the data set on HeLa Kyoto [1], the “solubility in G1/S (log2)” value was determined as 0.104. Moreover, the thermal stability score with HeLa Kyoto [2] (setting [5]) is -0.31; with HeLa Kyoto [2] (cell cycle stage: mitosis), -1.09. Moreover, the “solubility change mitosis (log2)” value with HeLa Kyoto [3] was -0.24. This sequence also registered a melting temperature in the data set on HeLa Kyoto [4] (cell cycle stage: mitosis) of 59.6 °C.

For “MSLFGTTSGFGTSGTSMFGSATTDNHNPMKDIEVTSSPDDSIGCLSFSPPTLPGNFLIAGSWANDVRCWEVQDSGQTIPKAQQMHTGPVLDVCWSDDGSKVFTASCDKTAKMWDLSSNQAIQIAQHDAPVKTIHWIKAPNYSCVMTGSWDKTLKFWDTRSSNPMMVLQLPERCYCADVIYPMAVVATAERGLIVYQLENQPSEFRRIESPLKHQHRCVAIFKDKQNKPTGFALGSIEGRVAIHYINPPNPAKDNFTFKCHRSNGTNTSAPQDIYAVNGIAFHPVHGTLATVGSDGRFSFWDKDARTKLKTSEQLDQPISACCFNHNGNIFAYASSYDWSKGHEFYNPQKKNYIFLRNAAEELKPRNKK [RAE1]”, the “solubility in G1/S (log2)” value with HeLa Kyoto [1] is -0.0787. Further, the thermal stability score with HeLa Kyoto [2] (setting [5]) is -1.34; with HeLa Kyoto [2] (cell cycle stage: mitosis), -0.473. Also, in the data set on HeLa Kyoto [3], the “solubility change mitosis (log2)” value worked out at 0.128. For the same sequence, the melting temperature in the data set on HeLa Kyoto [4] (cell cycle stage: G1/S) stood at 49.8 °C; in the data set on HeLa Kyoto [4] (cell cycle stage: mitosis), 49.1 °C.

As to “MALRVVRSVRALLCTLRAVPSPAAPCPPRPWQLGVGAVRTLRTGPALLSVRKFTEKHEWVTTENGIGTVGISNFAQEALGDVVYCSLPEVGTKLNKQDEFGALESVKAASELYSPLSGEVTEINEALAENPGLVNKSCYEDGWLIKMTLSNPSELDELMSEEAYEKYIKSIEE [GCSH]”, the “solubility in G1/S (log2)” value in the data set with HeLa Kyoto [1] was 0.297. Also, the results for the thermal stability score in the data set with HeLa Kyoto [2] (setting [5]) and in the data set with HeLa Kyoto [2] (cell cycle stage: mitosis) were -1.2 and -1.7, respectively. Further, the “solubility change mitosis (log2)” value in the data set with HeLa Kyoto [3] was -0.0756. Besides, the melting temperature was determined as 60 °C with HeLa Kyoto [4] (cell cycle stage: G1/S) and 56.8 °C with HeLa Kyoto [4] (cell cycle stage: mitosis).

Consider “MGLLDLCEEVFGTADLYRVLGVRREASDGEVRRGYHKVSLQVHPDRVGEGDKEDATRRFQILGKVYSVLSDREQRAVYDEQGTVDEDSPVLTQDRDWEAYWRLLFKKISLEDIQAFEKTYKGSEEELADIKQAYLDFKGDMDQIMESVLCVQYTEEPRIRNIIQQAIDAGEVPSYNAFVKESKQKMNARKRRAQEEAKEAEMSRKELGLDEGVDSLKAAIQSRQKDRQKEMDNFLAQMEAKYCKSSKGGGKKSALKKEKK [DNAJC9]”, for which the “solubility in G1/S (log2)” value in the data set on HeLa Kyoto [1] was 0.502. In addition, the results for the thermal stability score in the data set on HeLa Kyoto [2] (setting [5]) and in the data set with HeLa Kyoto [2] (cell cycle stage: mitosis) were -3.62 and -5.66, respectively. In addition, the “solubility change mitosis (log2)” value in the data set on HeLa Kyoto [3] came to 0.21. Besides, the melting temperature with HeLa Kyoto [4] (cell cycle stage: G1/S) amounted to 52 °C; with HeLa Kyoto [4] (cell cycle stage: mitosis), 51.8 °C.

“MARPLVPSSQKALLLELKGLQEEPVEGFRVTLVDEGDLYNWEVAIFGPPNTYYEGGYFKARLKFPIDYPYSPPAFRFLTKMWHPNIYETGDVCISILHPPVDDPQSGELPSERWNPTQNVRTILLSVISLLNEPNTFSPANVDASVMYRKWKESKGKDREYTDIIRKQVLGTKVDAERDGVKVPTTLAEYCVKTKAPAPDEGSDLFYDDYYEDGEVEEEADSCFGDDEDDSGTEES [CDC34]”: the “solubility in G1/S (log2)” value with HeLa Kyoto [1] was determined as 0.3. The thermal stability score in the data set on HeLa Kyoto [2] (setting [5]) came to 0.555; with HeLa Kyoto [2] (cell cycle stage: mitosis), 2.54. In addition, in the data set on HeLa Kyoto [3], the “solubility change mitosis (log2)” value was -0.0905. Further, the values for the melting temperature with HeLa Kyoto [4] (cell cycle stage: G1/S) and with HeLa Kyoto [4] (cell cycle stage: mitosis) were 48.8 °C and 49.1 °C, respectively.

Take “MALLRGVFVVAAKRTPFGAYGGLLKDFTATDLSEFAAKAALSAGKVSPETVDSVIMGNVLQSSSDAIYLARHVGLRVGIPKETPALTINRLCGSGFQSIVNGCQEICVKEAEVVLCGGTESMSQAPYCVRNVRFGTKLGSDIKLEDSLWVSLTDQHVQLPMAMTAENLAVKHKISREECDKYALQSQQRWKAANDAGYFNDEMAPIEVKTKKGKQTMQVDEHARPQTTLEQLQKLPPVFKKDGTVTAGNASGVADGAGAVIIASEDAVKKHNFTPLARIVGYFVSGCDPSIMGIGPVPAISGALKKAGLSLKDMDLVEVNEAFAPQYLAVERSLDLDISKTNVNGGAIALGHPLGGSGSRITAHLVHELRRRGGKYAVGSACIGGGQGIAVIIQSTA [ACAA2]”: the “solubility in G1/S (log2)” value with HeLa Kyoto [1] was determined as 0.213. Further, the thermal stability score in the data set with HeLa Kyoto [2] (setting [5]) was -3.39; in the data set on HeLa Kyoto [2] (cell cycle stage: mitosis) it was -4.11. Besides, the “solubility change mitosis (log2)” value in the data set with HeLa Kyoto [3] is -0.0842. The melting temperature in the data set on HeLa Kyoto [4] (cell cycle stage: G1/S) worked out at 59.3 °C; in the data set on HeLa Kyoto [4] (cell cycle stage: mitosis), 59.2 °C.
